From publication PMC3844954

Assays:
[1] = IFNλ activity of supernatant, Mx1-luciferase reporter, HEK293+IFNλR1; settings: glycan lost; control: wild-type IFNλ4-FLAG
[2] = western blot of acetone-precipitated HEK293 medium; settings: glycan lost; control: wild-type IFNλ4-FLAG

B1: IFNλ4 (interferon lambda 4): N61D (protein)
parent chain: MRPSVWAAVAAGLWVLCTVIAAAPRRCLLSHYRSLEPRTLAAAKALRDRYEEEALSWGQRNCSFRPRRDPPRPSSCARLRHVARGIADAQAVLSGLHRSELLPGAGPILELLAAAGRDVAACLELARPGSSRKVPGAQKRRHKPRRADSPRCRKASVVFNLLRLLTWELRLAAHSGPCL
In the case of B1, the expression_or_secretion [1] is reported as “decreases” and the expression_or_secretion [2] is reported as “decreases”.
